Results from patent US20240110004 (published 2024).
Where no end group is shown, it is not given here.

Target: VCP (UniProt P55072)
Experiment: BLI, VCP immobilized on anti-HIS sensor, analyte in Tris pH 8.4, multivalent

Chain of VCP (P55072 2-806): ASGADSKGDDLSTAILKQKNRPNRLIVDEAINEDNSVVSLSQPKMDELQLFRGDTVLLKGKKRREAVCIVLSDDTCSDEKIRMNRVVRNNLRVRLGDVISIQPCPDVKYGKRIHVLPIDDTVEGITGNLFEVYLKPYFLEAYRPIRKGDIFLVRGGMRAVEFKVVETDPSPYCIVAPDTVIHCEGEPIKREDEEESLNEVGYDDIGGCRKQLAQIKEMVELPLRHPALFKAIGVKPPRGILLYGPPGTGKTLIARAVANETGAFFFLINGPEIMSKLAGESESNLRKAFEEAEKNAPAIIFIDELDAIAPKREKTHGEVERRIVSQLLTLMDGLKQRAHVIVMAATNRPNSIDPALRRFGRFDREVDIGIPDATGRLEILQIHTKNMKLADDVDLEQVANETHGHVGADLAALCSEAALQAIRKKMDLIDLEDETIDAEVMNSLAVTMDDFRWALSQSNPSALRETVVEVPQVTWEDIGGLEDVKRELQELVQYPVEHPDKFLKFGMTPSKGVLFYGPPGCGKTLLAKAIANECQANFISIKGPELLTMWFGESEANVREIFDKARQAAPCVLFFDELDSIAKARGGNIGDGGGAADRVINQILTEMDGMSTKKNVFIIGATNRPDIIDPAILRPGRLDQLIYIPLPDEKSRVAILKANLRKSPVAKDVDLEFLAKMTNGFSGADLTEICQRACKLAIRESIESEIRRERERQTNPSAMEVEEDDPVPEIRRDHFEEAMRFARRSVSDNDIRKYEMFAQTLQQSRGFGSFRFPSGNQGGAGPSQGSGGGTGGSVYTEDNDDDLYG

- Kd: 92 nM
Binder: HVLVMSATRR (not fully specified (N-terminus); also: multivalent polymer conjugate) [P1]
